# Assay results: patent US20100221261
# B1: Caspase-3 (protein)
# chain: SGISLDNSYKMDYPEMGLCIIINNKNFHKSTGMTSRSGTDVDAANLRETFRNLKYEVRNKNDLTREEIVELMRDVSKEDHSKRSSFVCVLLSHGEEGIIFGTNGPVDLKKITNFFRGDRCRSLTGKPKLFIIQACRGTELDCGIETDSGVDDDMACHKIPVEADFLYAYSTAPGYYSWRNSKDGSWFIQSLCAMLKQYADKLEFMHILTRVNRKVATEFESFSFDATFHAKKQIPCIVSMLTKELYFYH
# Tests used:
# [1] = biological target: GST-linker BIR 2 BIR3Ring
# [2] = biological target: GST-XIAP linker BIR 2 [GST: P08515]
# GST-linker BIR 2 BIR3Ring, sequence (chain, as listed by the source): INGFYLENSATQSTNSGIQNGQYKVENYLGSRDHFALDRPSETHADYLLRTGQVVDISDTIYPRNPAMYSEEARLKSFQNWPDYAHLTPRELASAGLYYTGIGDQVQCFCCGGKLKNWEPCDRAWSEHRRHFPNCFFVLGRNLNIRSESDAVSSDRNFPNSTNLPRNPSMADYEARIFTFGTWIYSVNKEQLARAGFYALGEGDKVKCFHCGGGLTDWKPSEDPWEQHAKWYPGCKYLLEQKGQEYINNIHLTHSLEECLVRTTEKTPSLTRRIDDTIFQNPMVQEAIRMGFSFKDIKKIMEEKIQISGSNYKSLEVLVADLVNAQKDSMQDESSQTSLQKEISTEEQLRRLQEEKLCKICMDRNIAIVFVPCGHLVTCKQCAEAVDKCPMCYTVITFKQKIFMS
protein,measurement,setting,value
B1,"Caspase 3 activity (hydrolysis of DEVD-AMC, released AMC fluorescence)",[1],"caspase-3 was inhibited by GST fusion proteins of XIAP linker-Bir2, XIAP Linker Bir2-Bir3-RING or full-length XIAP"
same,"Caspase 3 activity (hydrolysis of DEVD-AMC, released AMC fluorescence)",[2],"caspase-3 was inhibited by GST fusion proteins of XIAP linker-Bir2, XIAP Linker Bir2-Bir3-RING or full-length XIAP"
